This is an account of results in article PMC3432979.

Where two headings read alike, the source gives them in different places.

For assay [1], the target named is HLA-DR1 (DRα1*0101/DRβ1*0101) refolded in the absence of peptide. The experiment in a line: IC50 APL stability assay (peptide binding to DR1). The following applies: read off a plot.
In assay [2] the target is HLA-DR4 (DRα1*0101/DRβ1*0401) with the influenza hemagglutinin peptide HA306-318 (human | influenza virus). The experiment in a line: SPR.
Assay [3] deals with HLA-DR1 (DRα1*0101/DRβ1*0101) with the influenza hemagglutinin peptide HA306-318 (human | influenza virus). The experiment in a line: SPR.
The target in assay [4] is HLA-DR4 (DRα1*0101/DRβ1*0401) with the influenza hemagglutinin peptide HA306-318 (human | influenza virus). Description: SPR. This is another data set of the same source.
Assay [5] addresses HLA-DR1 (DRα1*0101/DRβ1*0101) with the influenza hemagglutinin peptide HA306-318 (human | influenza virus). The experiment in a line: SPR. This is another data set of the same source. (In SPR one partner is held on a chip, and binding of the other changes the refractive index at the surface.)
For assay [6] the target is unchanged. The experiment in a line: SPR. The source holds these as a separate data set.
Assay [7] deals with HLA-DR4 (DRα1*0101/DRβ1*0401) with the influenza hemagglutinin peptide HA306-318 (human | influenza virus). The experiment in a line: SPR. This is another data set of the same source.
The target of assay [8] is HLA-DR1 (DRα1*0101/DRβ1*0101) with the influenza hemagglutinin peptide HA306-318 (human | influenza virus). Description: SPR. This is another data set of the same source.
The target in assay [9] is HLA-DR4 (DRα1*0101/DRβ1*0401) with the influenza hemagglutinin peptide HA306-318 (human | influenza virus). Description: SPR. This is another data set of the same source.
The target in assay [10] is HLA-DR1 (DRα1*0101/DRβ1*0101) with the influenza hemagglutinin peptide HA306-318 (human | influenza virus). Description: SPR. The source holds these as a separate data set.
The target in assay [11] is HLA-DR4 (DRα1*0101/DRβ1*0401) with the influenza hemagglutinin peptide HA306-318 (human | influenza virus). The experiment in a line: SPR. The source holds these as a separate data set.

HA306-318 peptide (wild-type HA) V309R: the IC50 (commonly the point on the concentration scale where inhibition reaches its midpoint) in assay [1] (parent: est. 12) was 0.021 µM.
On to “HA1.7 TCR (soluble, extracellular variable and constant domains with an engineered disulphide link)”, for which the dissociation constant Kd (in general, the constant that tells how readily two partners part at equilibrium) in [2] came to 291 µM; in [3], 62 µM; in assay [4], 55 µM; in assay [5], 28 µM; in assay [6] it was 36 µM; in [7], 89 µM. The Kd amounted to 531 µM in [8], 1270 µM in assay [9], 204 µM in [10] and 48 µM in assay [11]. Besides, the dH was found to be 18 kcal/mol in [8] and 16 kcal/mol in [9].
For the substance HA306-318 peptide (wild-type HA) N312T, in assay [1] (parent: est. 12), the IC50 came out at 0.015 µM.
Same read-out and setting: for HA306-318 peptide (wild-type HA) N312K the value was 0.018 µM; for HA306-318 peptide (wild-type HA) K310F, 0.008 µM.
Still for that read-out and setting: for HA306-318 peptide (wild-type HA) N312Q the value was 0.011 µM; for HA306-318 peptide (wild-type HA) K307S, 0.022 µM.
As to HA306-318 peptide (wild-type HA) K310V, the IC50 in assay [1] (parent: est. 12) amounted to 0.01 µM.
For HA306-318 peptide (wild-type HA) N312F, the IC50 in assay [1] (parent: est. 12) turned out to be 0.006 µM.
As for HA306-318 peptide (wild-type HA) Y308A, the IC50 in assay [1] (parent: est. 13) amounted to 22 µM.
In the case of HA306-318 peptide (wild-type HA) V309E, in assay [1] (parent: est. 12), the IC50 was determined as 0.03 µM.
HA306-318 peptide (wild-type HA) N312S: in assay [1] (parent: est. 12), the IC50 was determined as 0.012 µM.
For the substance HA306-318 peptide (wild-type HA) K315H, in [1] (parent: est. 12), the IC50 was found to be 0.013 µM.
